Measured values as given in patent US20220380444A1 (UNIVERSITY COLLEGE CARDIFF CONSULTANTS, published 2022).

T1: rat C7 protein (rat)
T1 chain: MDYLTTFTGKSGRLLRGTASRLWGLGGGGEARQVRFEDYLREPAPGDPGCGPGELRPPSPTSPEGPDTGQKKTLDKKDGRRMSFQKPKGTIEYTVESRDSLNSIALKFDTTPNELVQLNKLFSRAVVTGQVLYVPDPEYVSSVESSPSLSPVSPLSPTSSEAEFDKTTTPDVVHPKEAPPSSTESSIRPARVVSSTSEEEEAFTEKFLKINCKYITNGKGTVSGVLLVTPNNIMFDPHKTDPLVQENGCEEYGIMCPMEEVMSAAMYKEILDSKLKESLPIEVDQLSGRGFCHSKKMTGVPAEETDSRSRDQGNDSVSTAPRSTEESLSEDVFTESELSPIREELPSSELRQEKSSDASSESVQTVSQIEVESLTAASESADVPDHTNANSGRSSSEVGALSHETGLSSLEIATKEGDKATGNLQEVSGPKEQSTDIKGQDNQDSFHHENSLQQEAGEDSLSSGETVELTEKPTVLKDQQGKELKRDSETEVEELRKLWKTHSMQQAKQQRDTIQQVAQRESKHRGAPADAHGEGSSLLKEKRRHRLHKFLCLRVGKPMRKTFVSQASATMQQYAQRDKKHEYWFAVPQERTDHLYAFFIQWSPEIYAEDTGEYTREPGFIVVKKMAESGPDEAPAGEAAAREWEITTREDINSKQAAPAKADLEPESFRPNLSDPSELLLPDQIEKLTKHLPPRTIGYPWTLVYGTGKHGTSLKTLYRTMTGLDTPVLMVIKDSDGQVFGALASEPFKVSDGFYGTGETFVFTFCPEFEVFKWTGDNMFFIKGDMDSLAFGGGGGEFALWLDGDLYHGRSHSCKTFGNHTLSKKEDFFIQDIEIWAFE


Tests used:
[1] = target: T1, rat C7 protein; assay: SPR (Biacore); antibody captured on mouse IgG capture kit (CM5 chip), C7 flowed over
Method: (§1) Dissociation was then measured for a further 600 seconds. The surface was regenerated between each cycle.

[2] = target: T2, human complement protein C7 (human, UniProt P10643 23-843); assay: as above
T2 construct: Purified in house, or present in human serum in the western blots; also called human C7; Hu C7
T2 sequence (P10643 other isoform, or with tags, fused parts or gaps limits assumed): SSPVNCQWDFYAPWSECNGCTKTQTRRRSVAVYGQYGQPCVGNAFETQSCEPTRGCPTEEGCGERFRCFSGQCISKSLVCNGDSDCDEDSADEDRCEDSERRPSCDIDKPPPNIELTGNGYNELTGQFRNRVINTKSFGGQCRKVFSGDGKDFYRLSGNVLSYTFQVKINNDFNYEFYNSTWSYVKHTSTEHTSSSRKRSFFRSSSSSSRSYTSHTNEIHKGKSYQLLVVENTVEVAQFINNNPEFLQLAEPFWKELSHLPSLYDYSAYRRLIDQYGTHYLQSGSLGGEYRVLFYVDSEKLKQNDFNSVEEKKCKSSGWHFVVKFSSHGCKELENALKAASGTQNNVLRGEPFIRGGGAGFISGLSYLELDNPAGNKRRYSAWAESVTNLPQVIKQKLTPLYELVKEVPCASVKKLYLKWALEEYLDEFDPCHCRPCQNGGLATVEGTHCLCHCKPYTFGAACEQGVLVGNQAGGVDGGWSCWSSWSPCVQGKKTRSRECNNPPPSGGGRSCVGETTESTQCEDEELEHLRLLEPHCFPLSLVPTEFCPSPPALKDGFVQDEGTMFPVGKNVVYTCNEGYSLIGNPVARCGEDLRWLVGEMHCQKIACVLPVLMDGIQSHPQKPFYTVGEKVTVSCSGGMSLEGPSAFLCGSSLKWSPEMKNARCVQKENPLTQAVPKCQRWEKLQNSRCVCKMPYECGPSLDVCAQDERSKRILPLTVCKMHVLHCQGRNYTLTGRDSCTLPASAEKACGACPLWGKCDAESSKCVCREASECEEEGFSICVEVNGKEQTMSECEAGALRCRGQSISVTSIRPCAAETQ
Method: as §1

[3] = target: T1, rat C7 protein; assay: cell-based or functional assay
[4] = target: mouse C7 protein (mouse, UniProt D3YXF5 23-845); assay: cell-based or functional assay
Sequence of mouse C7 protein (D3YXF5 23-845 limits assumed): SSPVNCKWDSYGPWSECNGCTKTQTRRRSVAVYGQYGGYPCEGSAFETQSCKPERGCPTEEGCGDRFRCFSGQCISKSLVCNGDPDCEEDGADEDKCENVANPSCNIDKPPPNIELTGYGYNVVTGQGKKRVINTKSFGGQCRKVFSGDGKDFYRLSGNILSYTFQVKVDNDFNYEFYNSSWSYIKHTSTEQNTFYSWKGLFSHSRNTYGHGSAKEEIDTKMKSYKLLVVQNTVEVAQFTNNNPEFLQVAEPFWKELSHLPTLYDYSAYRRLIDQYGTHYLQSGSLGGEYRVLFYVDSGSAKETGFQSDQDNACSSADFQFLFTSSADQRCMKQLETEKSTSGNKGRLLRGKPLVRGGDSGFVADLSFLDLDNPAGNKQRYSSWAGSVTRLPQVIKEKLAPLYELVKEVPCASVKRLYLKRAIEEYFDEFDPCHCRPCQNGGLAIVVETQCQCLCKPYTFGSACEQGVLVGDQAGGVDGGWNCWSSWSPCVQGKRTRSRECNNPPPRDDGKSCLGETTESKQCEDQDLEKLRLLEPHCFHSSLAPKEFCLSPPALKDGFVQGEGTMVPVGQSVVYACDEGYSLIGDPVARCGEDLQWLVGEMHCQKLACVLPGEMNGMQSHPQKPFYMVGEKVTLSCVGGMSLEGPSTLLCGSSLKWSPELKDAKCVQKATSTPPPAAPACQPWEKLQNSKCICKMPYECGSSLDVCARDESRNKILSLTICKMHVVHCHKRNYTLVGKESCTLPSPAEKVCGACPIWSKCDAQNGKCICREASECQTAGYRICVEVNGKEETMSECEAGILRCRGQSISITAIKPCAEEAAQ

[5] = target: T2, human complement protein C7; assay: cell-based or functional assay
[6] = target: T2, human complement protein C7; assay: direct ELISA, C7 immobilised on the well, antibody titrated
Method: Wells were blocked with bovine serum albumin (BSA), washed, then incubated (1 hour at 37° C.) with test samples containing mAb (supernatants from hybridoma clones for example). Wells were washed then incubated as above with peroxidase-labelled anti-mouse immunoglobulin (Jackson Labs). Wells were washed and signals were developed with OPD (o-phenylenediamine dihydrochloride; Sigma). Colour development was stopped by adding 10% H₂SO₄ to all wells, usually within 5 minutes. The absorbance of each well was measured at 492 nm.

[7] = target: T2, human complement protein C7; assay: sandwich ELISA, 2H2 coated as capture, human C7 titrated, polyclonal anti-C7 as detection
[8] = target: T2, human complement protein C7; assay: sandwich ELISA, 2H2 coated as capture, human C7 titrated, goat anti-C7 as detection
[9] = target: T1, rat C7 protein; assay: direct ELISA, rat C7 on the well, antibody titrated

Kd [1] [nM] | koff [1] [s⁻¹] | kon [1] [M⁻¹ s⁻¹] | Kd [2] [nM] | koff [2] [s⁻¹] | kon [2] [M⁻¹ s⁻¹] | EC50 (read off the curve) [6] [µg/mL] | EC50 (read off the curve) [7] [µg/mL] | EC50 (read off the curve) [8] [µg/mL] | EC50 (read off the curve) [9] [µg/mL] | Binder | 50% Inhibitory Dose, classical pathway haemolysis assay [3] [ng/mL] | Haemolytic Units (HU), classical pathway haemolysis assay [3] [HU] | 50% Inhibitory Dose, classical pathway haemolysis assay [4] [ng/mL] | Haemolytic Units (HU), classical pathway haemolysis assay [4] [HU] | 50% Inhibitory Dose, classical pathway haemolysis assay [5] [ng/mL] | Haemolytic Units (HU), classical pathway haemolysis assay [5] [HU]
81.7 | 0.00057 | 6980 | 55.5 | 0.0015 | 26300 | – | – | – | – | monoclonal anti-C7 antibody 73D1 (antibody, IgG2a, V domains shown, also called mAb 73D1; antibody from hybridoma ECACC 19080601) VH: EVQLQQSGPELVKPGASVKMSCKASGYTFTDYNMHWVKQSHGKSLEWIGYINPNNGGPSYNQNFKGKATLTVNKSSSTAYMELRSLTSEDSAVYYCACGNYPDYWGQGTTLTVSS VL: DIQMTQSPASLSASVGETVTITCRASGNIHNYLAWYQQKQGKSPQLLVYNAKTLADGVPSRFSGSGSGTQYSLKINSLQPEDFGSYYCQHFWSTPLTFGAGTKLELK | 506 | 19.8 | 720 | 13.9 | 582 | 17.2
– | – | – | 1.02 | 6.94e-05 | 68300 | ~0.01 | – | – | – | monoclonal anti-C7 antibody 17E7 (antibody, IgG2a, V domains shown, also called mAb 17E7; antibody from hybridoma ECACC 19041601) VH: EVQLQQSGTVLARPGASVKMSCKTSGYSFTTYWMHWVKQRPGQGLEWIGAIYPGNSDTYYSQKFKDKAKLTAVTSASTAYMELSSLTNEDSAVYYCTRSGGYDVGGLDYWGQGTTLTVSS VL: DIVMTQSPATLSVTPGDGVSLSCRASQSISDYLHWYQQKSHESPRLLIKFASQSISGIPSRFSGSGSGSDFTLSINSVEPEDVGMYYCQNGHSFPFTFGSGTKLELK | – | – | – | – | 182 | 55.1
– | – | – | – | – | – | – | ~0.6 | ~0.6 | ~3 | monoclonal anti-C7 antibody 2H2 (antibody, IgG2b, V domains shown, Biotinylated in the pull-down assays; also called mAb 2H2; clone 2H2) VH: QVQLQQPGAELMKPGASVKLSCKASGYIFTSYWMHWVKQRPGRGLEWIGRIDPNSGGTNYNEKFKSKATLTVDKPSSTVYMKISSLTSEDSAVYYCAREHDYDYAMDYWGQGTSVTVSS VL: DIVMTQAAPSVPVTPGESVSISCRSSKSLLHSNGNTYLYWFLQRPGQSPQLLIYRMSNLASGVPDRFSGSGSGTAFTLRISRVEAEDVGVYYCMQHLEYPFTFGSGTKLEIK | 33.9 | 265 | 3720 | 2.7 | 9980 | 1
